Data reported in the DeepSol protein solubility set.

Assay: soluble on expression in E. coli; label from the status in PepcDB or PDB records

Sequence | soluble on expression in E. coli
MNNSAFTFQTLHPDTIMDALFEHGIRVDSGLTPLNSYENRVYQFQDEDRRRFVVKFYRPERWTADQILEEHQFALQLVNDEVPVAAPVAFNGQTLLNHQGFYFAVFPSVGGRQFEADNIDQMEAVGRYLGRMHQTGRKQLFIHRPTIGLNEYLIEPRKLFEDATLIPSGLKAAFLKATDELIAAVTAHWREDFTVLRLHGDCHAGNILWRDGPMFVDLDDARNGPAVQDLWMLLNGDKAEQRMQLETIIEAYEEFSEFDTAEIGLIEPLRAMRLVYYLAWLMRRWADPAFPKNFPWLTGEDYWLRQTATFIEQAKVLQEPPLQLTPMY | soluble
MIIKSISLMHDRGNGLGGGFAAYGIYPDFKEFFAFHLMYENGMALQLTEEYLERHFFVEHYEEIPTRRTPAIVHPPLFKRYFVKPLETPEYREAIDYQNMTDEDVVVRHVMAINNEIEGAFVVSSGKNMGAFKGVGYPEEIADFFRLEEYTGYIWTAHNRFPTNTPGWWGGAHPFTLLDWSIVHNGEISSYGINKRYLEMYGYVCTMLTDTEVVAYTLDLLIRKHGLTPELASLAMAAPFWDMIDGLPDDERQLLTAIRQVYGSALLNGPFAILFASNEGLIGLNDRVKLRPLVCATKDDFVYMASEEAAIREICPAPDKVWSPRGGEPVIVKMQPGVI | not soluble
MSSDALPLLSIRGVGKTYAQPVLAEIDLQLFGGEVLALTGENGAGKSTLSKIVGGLERPGAGSLELLGRPYAPASRREAEALGVRMVMQELNLLPTLSVAENLFLHDLPRRAGWIDRRRLRAAAREAMAQVGLEAIDPDTLVGDLGIGHQQMVEIARNLIGDCRLLILDEPTAMLTAREVDMLFEQVERLRERGVAIVYISHRLEELARISQRIAVLRDGRLVCVEPIERYDADQLVTLMVGRDLGERFDLGPRQTGAPLLRVERLSRRGKVHEVSFEVRAGEIFGISGLIGSGRTELLRLIYGADRADGGQVLLGDPPQRLSLRSPADSVRQGVALITEDRKGEGLLLDQSISANLALGNLPALARHGVIDRRREEALARRQVEALRVRCADTAQAVGELSGGNQQKVVIGRWLERDCQVLLFDEPTRGIDVGAKFDIYALLAELTRRGKALVVVSSDLRELMLICDRIGVLSAGRMVDTFERDAWTQDALLAAAFAGYK | not soluble
MTVQQKIASGRSSGRTVSQERLNQLSEQTRRAIAQLEPVTLDWVAPVATDMDVAVIGGGQSGVAIAFGLRRAGIRRVQVFDAATPETAGVWNTIARMHTLRAGKGFTGLEQGIPELTFEHWYVALHGDAAFAAMAEIPRTVWLDYLNWYRETAGIDVRWQHRLISIDPRSDAENAPLNLRFELQDKGVIDLSTQTIVLATGLDGLGEPYIPSVLSHTLPPDRLVHTNDLINFSSLRGLSVGVVGAAASAFDAAAVALEHGAASVHQFVRHGDLVEANDQAAARPSADKLFFPEFDDAMRWRLILERRRRSSAPDAAIARACQHPNHYLHFNVAAEQIVALGDDIVARTTTGDIMLDTVIAATGYRQNVYARPELTAAAPHILLWQDRVAAAEGESGWSSHPYLGKGFELQEIEPGSAPWLKRIHVYTFAAIISHGIHAGDIGSAAIALPRLIAAVARSLFIHARADYERLASLGPSIAVDRVAPSPVSGPWEAAPLEHHHHHH | soluble
VRWIVDGMNVIGSRPDGWWRDRHRAMVMLVERLEGWAITKARGDDVTVVFERPPSTAIPSSVVEVAHAPKAAANSADDEIVRLVRSGAQPQEIRVVTSDKALTDRVRDLGAAVYPAERFRDLIDPRGSNAARRTQ | soluble
MNASLTPDQVSKKLKQFFSDHLPISQFMGLEIESYDGDTLILTAPLEPNINDKQTAFGGSLYNAAVMACWGMVYLKTQEENIACNQVVTEGNMKYIAPVYGRIRAICHAPDEEELANFFDHFERKGKARISLEAAIYNDACVMKIEPETKPSVKFNGQYAILKNQ | soluble
MSLEQNFIRLYQDSFREHWALPALTNYDTKESYTYGEMAADIARRHLLFERIGLKPGDKVALLGKDSAEWCMAFMSVITYGAIIVPVLPDFNAADAASIVTHSDAKYLFVSDKIWETMDPSQLLLLCGAVSIRDYTVFLDRTEGGLLSQEVEGLSRSFSEHYPSGFTAEDIRYAEVSNDDLILLNYTSGTTGFSKGVMLRANNLAGNVTYVKDRDIMFRGETILCFLPLAHTYSCAFNFLTPLTIGVHVYILGKIPSPLTLIKAFADVRPSFVIMVPLIIEKLYHKAIAPKIKTPLIKFLLRLPVLKKVIHKSIRSKLIESFGGNFRQIIIGGAALNDEVAHFLYRIGFPLTVGYGMTECGPLISYEDHSLWLPGSCGKSLSIMEVRIDHSGQERHSDSGDVGEIQVRGENVCLGYYKNAELTAELFTPDGWMRTGDLGTIDSLGNIFIKGRSKTMLLGSNGQNIYPEEIESKINNLSYVLESIVTERDGRLIALIVPDRQAIEHKGISPDQAWAYIERSRAELNGQVGAYEKITAFVRHDEEFEKTPKHSIKRFLYTEGHHHHHH | soluble
MVSRHIPERLKKKIYQEANMTCPNCGERDVSTFEIHHIQPFVDVKKHEERNLILLCSNCHSKATVGELTEIEVLRLKVGLISSSSGQSKETMPSNVITLDSVKNHGVIANQVTLNNSPAKVVLLPAVGSIASSLKHQNYIKYLIDKYHAYKIVEVGKSNMKYPVFYNALKRKFGAKWDMVPIDRFLELSTYIQDRIEKTVLGKKLKAQGKKSYSTFEEYLAKNCSLEHHHHHH | not soluble
MVLPKSKNQIGLGRAIQSDFTKNRRNRKGGLKHIVDSDPKAHRAALRSVTHETDLDEFLNTAELGEVEFIAEKQNVTVIQNPEQNPFLLSKEEAARSKQKQEKNKDRLTIPRRPHWDQTTTAVELDRMERESFLNWRRNLAQLQDVEGFIVTPFERNLEIWRQLWRVIERSDVVVQIVDARNPLFFRSAHLEQYVKEVGPSKKNFLLVNKADMLTEEQRNYWSSYFNENNIPFLFFSARMAAEANERGEDLETYESTSSNEIPESLQADENDVHSSRIATLKVLEGIFEKFASTLPDGKTKMTFGLVGYPNVGKSSTINALVGSKKVSVSSTPGKTKHFQTINLSEKVSLLDCPGLVFPSFATTQADLVLDGVLPIDQLREYTGPSALMAERIPKEVLETLYTIRIRIKPIEEGGTGVPSAQEVLFPFARSRGFMRAHHGTPDDSRAARILLKDYVNGKLLYVHPPPNYPNSGSEFNKEHHQKIVSATSDSITEKLQRTAISDNTLSAESQLVDDEYFQENPHVRPMVKGTAVAMQGPVYKGRNTMQPFQRRLNDDASPKYPMNAQGKPLSRRKARQLTALELGVSPEALSSATSKKHNKKNKRSKQRSGVVIDDY | soluble
MKLRLSALALGTTLLVGCASSGTDQQGRSDPLEGFNRTMYNFNFNVLDPYIVRPVAVAWRDYVPQPARNGLSNFTGNLEEPAVMVNYFLQGDPYQGMVHFTRFFLNTILGMGGFIDVAGMANPKLQRTEPHRFGSTLGHYGVGYGPYVQLPFYGSFTLRDDGGDMADGLYPVLSWLTWPMSVGKWTLEGIETRAQLLDSDGLLRQSSDPYIMVREAYFQRHDFIANGGELKPQENPNAQAIQDDLKDIDSE | not soluble
MGSDKIHHHHHHVAPSIRARSAGRDETEFDFMMTDPLALAKRLIALRARIVATFNAGNWEEVGLLSGQSKIITGHDRLLRSLSWHDEDYEGNVLTVLRRISDRDVRALDVIEEYLNEKFPGEEKTEYVSAKPSERKITFAPNVFQIPDGSVESDLVAVMMPFSPEFKPVYEAMKRACTANSLRSMRVDDMWQDSVIVQDIFSLIFRAQVVVVDFSRKNPNVMYETGIAHTLGKHVVPIAQTIDDVPFDMRHHRTLLYLANGEGLQQLERELAAKLKQFGGGGPPIINLGFSR | not soluble
MKKALTTRHPPIDVYCICREVTEVMEKLHAADAETIPLASNIQMVNMVNNYVIMSYGLLHDDYEYGAITESCRKDVLLLLRELFPRKIYLWEN | soluble
MSKKKQDVSIVRSSAAEYLTFIAAMGDQSQSVEMRYEDENIWLTQKMMASLYDVTVPAINQHLKRIFDDGELLPEAVLKDYLITAADGKQYRTKHYNLQAIISVGFKINNVRAVQFRKWAGQIVKDYTIQGWTMDVERLKKGHLFTDEYFDRQLEYIREIRLSERKFYQKVTDLYATAFDYDKDALTTREFFALVQNKLHWAVHRHTAAELIVSRADAGRTNMGLTHWAAAPQGKIIKSDVSIAKNYLNVQEMEYLERIVSIYLDFAELQAMRKIPMSMQDWARRLDGFLEFNGNEILMGPGKVSQEQAKLHAESEFEQYRIVQDRLFQSDFDRLLLQLESKNKEEGQ | not soluble
MNQVEMTEFPVGKPQEALYGVASTPDGALWFTLAKGNAIGRLSPDGAVSRFPLPHADGQPTTITCGPDGRPWFTLSSANAIGRLAPDGALRMFELPRPASRPFGIAGGHDGCLWFAEMAGDRIGRITIDGDIEEYDLPVKGGYPSCMAAGRDGLMWFTLNQAGAVGSISATAAPRIFPLGAADAAPVGIASDAQGALWIAQAGNGAIARFDAGGRITEFPLHSRAARPHAIAADAAGNLWFTEWGANRIGRISEAGDLAGYELAAPGSEPHGIAIDPHGCVWAALETGRLVRLQASPRDLEHHHHHH | not soluble
MGSDKIHHHHHHMNKQEITSKIKEITETGAVCGVDVYVCLKGEEQGFYIEKMISMNSLKDRIRSIALEIINTQYLQDEVVYCDILDVIDNKKAVYVLEQSDEYKPFALLNDDSMDEVFNFDEKDIGNVLGFLFKINLNSKKLFIYQQAYVGSRLQAKNNLRIIQKDNVFEIVDKEMLKIDKRGELLILDNTILVRNVKVLQDFFGFQVFVRNQAQSVISKLEELDIIGNIATLKEYQTGEKLTISKKLMKVKNSPVLAMDKDELINKIPLVPRYKNIIHIENGKIRTNTKKDVDNLMKLLNDDYVKSELTDMEYDSTSKTLLNSESQDE | not soluble
MSLRSEVKAEDTWRLEDIFPSDEAWNKEFQAVKELIPNLSKYKGKLADSADHLYEALTYQDKVMERLGRLYTYAHMRSDQDTGNSFYQGLNDKAGNLYTQAESATAYLVPEILSIEEDKLQQFILEKEELKLYSHAIEEITKERPHVLSEKEEALLAEASEVLGSSSNTFSVLNNADITFPSIKDEDGNEKQITHGNFINFLESENREVRKNAFDAVYKTYGQYKNTMATTLSGTVKKDNFYARVKKYKSAREAALSNNSIPEEVYDNLVKTINKHLPLLHRYIALRKKVLELDEVHIYDLYTPLVKDAGMKVTYEEAKDYMLKGLAPLGEEYASILKEGLENRWVDVYENKGKRNGAYSSGAYGTNPYILMNWHNNVNNLFTLVHEFGHSVHSYYTRKHQPYPYGNYSIFVAEVASTTNEALLGEYLLNNLEDEKQRLYILNHMLEGFRGTVFRQTMFAEFEHLIHTKAQEGEPLTPELLTNVYYDLNKKYFGDGMVIDKEIGLEWSRIPHFYYNYYVYQYATGYSAAQALSSQILKEGKPAVDRYIDFLKAGSSQYPIDVLKKAGVDMTSPEPIEAACKMFEEKLDEMEELLMKVKEGHHHHHH | soluble
AHHHHHHGSPIRKVMKANEAAAWAAKLAKPKVIAAFPITPSTLIPEKISEFVANGELDAEFIKVESEHSAISACVGAAAAGVRTFTATASQGLALMHEILFIAAGMRLPIVMAIGNRALSAPINIWNDWQDTISQRDTGWMQFYAENNQEALDLILIAYKVAEDERVLLPAMVGFDAFILTHTVEPVEIPDQEVVDEFLGEYEPKHAYIDPARPITQGSLAFPAHYMESRYTVWEAMERAKKVIDEAFAEFEKKFGRKYQKIEEYKTEDADIIFVTMGSLAGTLKEWIDKKREEGYKVGAAKITVYRPFPVEEIRELAKKAKVLAFLEKNITIGLYGAVFTDASAALINESEKPLMVDFIVGLGGRDVTFNQLDEALEIAEKALKEGKVENPINWIGLRWELVK | soluble
